Results from the supplement of paper PMC9112550, “Optimization of the antimicrobial peptide Bac7 by deep mutational scanning” (BMC Biology, 2022).

Tested on: Escherichia coli TOP10
Assay: shrunken log2 fold change of peptide-encoding DNA abundance (4.5 h post-induction vs induction); higher = less antimicrobial activity (less host growth inhibition)
Conditions: time post-induction: 4.5 h; library: site-saturation at positions 5, 18, 19, 20
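Further: peptides expressed intracellularly from a pBAD plasmid library in pooled LB shake-flask culture, induced with 0.3% L-arabinose, DNA abundance read by NGS, three biological replicates, DESeq2 with apeglm shrinkage.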

## RRIRWRPPRLPRPRPRPTIQPRP
  shrunken log2 fold change: 0.0488

## RRIRQRPPRLPRPRPRPAETPRP
  shrunken log2 fold change: 0.0338

## RRIRYRPPRLPRPRPRPRWYPRP
  shrunken log2 fold change: -1.15

## RRIRERPPRLPRPRPRPKLLPRP
  shrunken log2 fold change: 0.0473

## RRIRYRPPRLPRPRPRPRGSPRP
  shrunken log2 fold change: -0.285

## RRIRIRPPRLPRPRPRPCTQPRP
  shrunken log2 fold change: -0.361

## RRIRGRPPRLPRPRPRPYHAPRP
  shrunken log2 fold change: 0.142

## RRIRLRPPRLPRPRPRPYEGPRP
  shrunken log2 fold change: 0.0285

## RRIRVRPPRLPRPRPRPEATPRP
  shrunken log2 fold change: 0.92

## RRIRNRPPRLPRPRPRPWTGPRP
  shrunken log2 fold change: -0.0655

## RRIRDRPPRLPRPRPRPANSPRP
  shrunken log2 fold change: 2.98

## RRIRTRPPRLPRPRPRPIAYPRP
  shrunken log2 fold change: 0.0173

## RRIRTRPPRLPRPRPRPEREPRP
  shrunken log2 fold change: -0.00458

## RRIRMRPPRLPRPRPRPWIVPRP
  shrunken log2 fold change: 0.0842

## RRIRQRPPRLPRPRPRPLDIPRP
  shrunken log2 fold change: -0.163

## RRIRNRPPRLPRPRPRPKYSPRP
  shrunken log2 fold change: -0.379

## RRIRFRPPRLPRPRPRPVIDPRP
  shrunken log2 fold change: -0.225

## RRIRWRPPRLPRPRPRPKLRPRP
  shrunken log2 fold change: 0.132

## RRIRWRPPRLPRPRPRPRLSPRP
  shrunken log2 fold change: 0.154

## RRIRFRPPRLPRPRPRPKRGPRP
  shrunken log2 fold change: 0.0365

## RRIRKRPPRLPRPRPRPREPPRP
  shrunken log2 fold change: 1.39

## RRIRNRPPRLPRPRPRPASSPRP
  shrunken log2 fold change: -0.317

## RRIRCRPPRLPRPRPRPWLAPRP
  shrunken log2 fold change: -0.298

## RRIRIRPPRLPRPRPRPAALPRP
  shrunken log2 fold change: -0.134

## RRIRSRPPRLPRPRPRPGRPPRP
  shrunken log2 fold change: 0.245

## RRIRPRPPRLPRPRPRPVNNPRP
  shrunken log2 fold change: -0.525

## RRIRWRPPRLPRPRPRPVHIPRP
  shrunken log2 fold change: -0.091

## RRIRARPPRLPRPRPRPGIDPRP
  shrunken log2 fold change: 0.652

## RRIRQRPPRLPRPRPRPECWPRP
  shrunken log2 fold change: 0.358

## RRIRGRPPRLPRPRPRPLTFPRP
  shrunken log2 fold change: 0.077

## RRIRERPPRLPRPRPRPQRWPRP
  shrunken log2 fold change: 0.117

## RRIRQRPPRLPRPRPRPYDNPRP
  shrunken log2 fold change: -0.0495

## RRIRNRPPRLPRPRPRPTRLPRP
  shrunken log2 fold change: 0.2

## RRIRVRPPRLPRPRPRPEDRPRP
  shrunken log2 fold change: 0.0837

## RRIRDRPPRLPRPRPRPTYFPRP
  shrunken log2 fold change: -0.0127

## RRIRFRPPRLPRPRPRPQVAPRP
  shrunken log2 fold change: 0.147

## RRIRSRPPRLPRPRPRPMGIPRP
  shrunken log2 fold change: 0.0414

## RRIRGRPPRLPRPRPRPWCNPRP
  shrunken log2 fold change: -0.276

## RRIRWRPPRLPRPRPRPFMIPRP
  shrunken log2 fold change: -0.798

## RRIRDRPPRLPRPRPRPVMWPRP
  shrunken log2 fold change: 0.783

## RRIRCRPPRLPRPRPRPMYSPRP
  shrunken log2 fold change: -0.386

## RRIRRRPPRLPRPRPRPWRVPRP
  shrunken log2 fold change: 0.277

## RRIRKRPPRLPRPRPRPTPSPRP
  shrunken log2 fold change: 0.921

## RRIRWRPPRLPRPRPRPHNYPRP
  shrunken log2 fold change: -0.267

## RRIRRRPPRLPRPRPRPTIVPRP
  shrunken log2 fold change: -0.111

## RRIRMRPPRLPRPRPRPTTQPRP
  shrunken log2 fold change: 0.081

## RRIRPRPPRLPRPRPRPYARPRP
  shrunken log2 fold change: -0.0595

## RRIRVRPPRLPRPRPRPHLQPRP
  shrunken log2 fold change: 0.14

## RRIRWRPPRLPRPRPRPRRTPRP
  shrunken log2 fold change: 0.0983

## RRIRNRPPRLPRPRPRPCLQPRP
  shrunken log2 fold change: -0.344

## RRIRRRPPRLPRPRPRPMMLPRP
  shrunken log2 fold change: -0.142

## RRIRARPPRLPRPRPRPAESPRP
  shrunken log2 fold change: 0.531

## RRIRWRPPRLPRPRPRPKDQPRP
  shrunken log2 fold change: 0.508

## RRIRQRPPRLPRPRPRPLRLPRP
  shrunken log2 fold change: 0.655

## RRIRGRPPRLPRPRPRPTWMPRP
  shrunken log2 fold change: 0.599

## RRIRMRPPRLPRPRPRPKQGPRP
  shrunken log2 fold change: -0.000896

## RRIRPRPPRLPRPRPRPWPHPRP
  shrunken log2 fold change: 0.0318

## RRIRCRPPRLPRPRPRPFVHPRP
  shrunken log2 fold change: -0.891

## RRIRNRPPRLPRPRPRPCRGPRP
  shrunken log2 fold change: -0.0345

## RRIRARPPRLPRPRPRPRWAPRP
  shrunken log2 fold change: 1.05

## RRIRQRPPRLPRPRPRPTRHPRP
  shrunken log2 fold change: 0.434

## RRIRDRPPRLPRPRPRPYKYPRP
  shrunken log2 fold change: -0.661

## RRIRVRPPRLPRPRPRPVEGPRP
  shrunken log2 fold change: 0.112

## RRIRWRPPRLPRPRPRPSNHPRP
  shrunken log2 fold change: -0.471

## RRIRLRPPRLPRPRPRPPVMPRP
  shrunken log2 fold change: 0.154

## RRIRGRPPRLPRPRPRPSDQPRP
  shrunken log2 fold change: 0.796

## RRIRMRPPRLPRPRPRPRNVPRP
  shrunken log2 fold change: 0.29

## RRIRIRPPRLPRPRPRPMTVPRP
  shrunken log2 fold change: 0.0104

## RRIRGRPPRLPRPRPRPCKKPRP
  shrunken log2 fold change: 0.00863

## RRIRHRPPRLPRPRPRPIMIPRP
  shrunken log2 fold change: -0.192

## RRIRWRPPRLPRPRPRPGACPRP
  shrunken log2 fold change: 0.188

## RRIRMRPPRLPRPRPRPQYQPRP
  shrunken log2 fold change: -0.00342

## RRIRCRPPRLPRPRPRPMPVPRP
  shrunken log2 fold change: 0.161

## RRIRQRPPRLPRPRPRPVPDPRP
  shrunken log2 fold change: 0.106

## RRIRRRPPRLPRPRPRPVRRPRP
  shrunken log2 fold change: 0.619

## RRIRWRPPRLPRPRPRPDNKPRP
  shrunken log2 fold change: -0.571

## RRIRWRPPRLPRPRPRPFNAPRP
  shrunken log2 fold change: -0.342

## RRIRCRPPRLPRPRPRPMASPRP
  shrunken log2 fold change: -0.00968

## RRIRYRPPRLPRPRPRPLCIPRP
  shrunken log2 fold change: -1.22

## RRIRWRPPRLPRPRPRPPTRPRP
  shrunken log2 fold change: 0.578

## RRIRDRPPRLPRPRPRPKNTPRP
  shrunken log2 fold change: -0.226

## RRIRVRPPRLPRPRPRPEWDPRP
  shrunken log2 fold change: 0.454

## RRIRWRPPRLPRPRPRPKFWPRP
  shrunken log2 fold change: 0.0806

## RRIRMRPPRLPRPRPRPWCKPRP
  shrunken log2 fold change: 0.0317

## RRIRVRPPRLPRPRPRPGRNPRP
  shrunken log2 fold change: -0.00746

## RRIRKRPPRLPRPRPRPKQAPRP
  shrunken log2 fold change: 0.00509

## RRIRDRPPRLPRPRPRPMNQPRP
  shrunken log2 fold change: -0.334

## RRIRDRPPRLPRPRPRPGSYPRP
  shrunken log2 fold change: -0.0689

## RRIRCRPPRLPRPRPRPSSWPRP
  shrunken log2 fold change: -0.251

## RRIRPRPPRLPRPRPRPQNGPRP
  shrunken log2 fold change: -0.281

## RRIRARPPRLPRPRPRPQHVPRP
  shrunken log2 fold change: 0.0233

## RRIRNRPPRLPRPRPRPCCKPRP
  shrunken log2 fold change: -0.274

## RRIRQRPPRLPRPRPRPRMQPRP
  shrunken log2 fold change: -0.0113

## RRIRCRPPRLPRPRPRPPWCPRP
  shrunken log2 fold change: -0.123

## RRIRLRPPRLPRPRPRPQHVPRP
  shrunken log2 fold change: -0.316

## RRIRNRPPRLPRPRPRPYECPRP
  shrunken log2 fold change: -0.177

## RRIRSRPPRLPRPRPRPNYAPRP
  shrunken log2 fold change: -0.327

## RRIRGRPPRLPRPRPRPLHMPRP
  shrunken log2 fold change: 0.379

## RRIRSRPPRLPRPRPRPTCTPRP
  shrunken log2 fold change: 0.342

## RRIRTRPPRLPRPRPRPHRGPRP
  shrunken log2 fold change: -0.154

## RRIRGRPPRLPRPRPRPEVAPRP
  shrunken log2 fold change: 1.88

## RRIRARPPRLPRPRPRPCLIPRP
  shrunken log2 fold change: -0.191

## RRIRMRPPRLPRPRPRPDKDPRP
  shrunken log2 fold change: 1.24

## RRIRARPPRLPRPRPRPRHNPRP
  shrunken log2 fold change: -0.0548

## RRIRMRPPRLPRPRPRPNDAPRP
  shrunken log2 fold change: 0.317

## RRIRARPPRLPRPRPRPVWVPRP
  shrunken log2 fold change: 0.321

## RRIRMRPPRLPRPRPRPRWCPRP
  shrunken log2 fold change: 0.273

## RRIRARPPRLPRPRPRPHTEPRP
  shrunken log2 fold change: -0.0331

## RRIRQRPPRLPRPRPRPMEQPRP
  shrunken log2 fold change: -0.074

## RRIRYRPPRLPRPRPRPYFSPRP
  shrunken log2 fold change: -1.16

## RRIRSRPPRLPRPRPRPSINPRP
  shrunken log2 fold change: -0.567

## RRIRIRPPRLPRPRPRPKNIPRP
  shrunken log2 fold change: -0.733

## RRIRCRPPRLPRPRPRPVDFPRP
  shrunken log2 fold change: -0.252

## RRIRARPPRLPRPRPRPGKMPRP
  shrunken log2 fold change: -0.0572

## RRIRSRPPRLPRPRPRPSRSPRP
  shrunken log2 fold change: 0.179

## RRIRHRPPRLPRPRPRPADYPRP
  shrunken log2 fold change: -0.291

## RRIRSRPPRLPRPRPRPCWCPRP
  shrunken log2 fold change: 0.0677

## RRIRDRPPRLPRPRPRPIHKPRP
  shrunken log2 fold change: -0.275

## RRIRCRPPRLPRPRPRPFDIPRP
  shrunken log2 fold change: -1.4

## RRIRERPPRLPRPRPRPWDSPRP
  shrunken log2 fold change: 0.0192

## RRIRDRPPRLPRPRPRPFHCPRP
  shrunken log2 fold change: -0.194

## RRIRWRPPRLPRPRPRPITKPRP
  shrunken log2 fold change: 0.258

## RRIRDRPPRLPRPRPRPSKLPRP
  shrunken log2 fold change: -0.317

## RRIRFRPPRLPRPRPRPITRPRP
  shrunken log2 fold change: 0.114

## RRIRCRPPRLPRPRPRPQAFPRP
  shrunken log2 fold change: -0.00585
